For the test, the target named is T1, VEGF (UniProt P15692-4 27-191).
T1 construct: Bought reagent; also called vascular endothelial growth factor
Briefly: BIACORE SPR. (SPR reads the build-up and loss of mass on a sensor chip optically.)

T1 sequence (P15692 other isoform, or with tags, fused parts or gaps limits assumed): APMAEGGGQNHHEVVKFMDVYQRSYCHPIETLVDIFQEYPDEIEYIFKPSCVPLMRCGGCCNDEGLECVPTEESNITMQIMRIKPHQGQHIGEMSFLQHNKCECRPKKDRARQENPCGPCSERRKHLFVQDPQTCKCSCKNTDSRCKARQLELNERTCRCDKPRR

B1: DVD518 (bispecific antibody, human IgG1, kappa, lambda)
heavy: not shown
light: DIQMTQSPSSLSASVGDRVTITCSASQDISNYLNWYQQKPGKAPKVLIYFTSSLHSGVPSRFSGSGSGTDFTLTISSLQPEDFATYYCQQYSTVPWTFGQGTKVEIKRTVAAPSVFIFPPQAVVTQESALTTSPGETVTLTCRSSTGAVTTSNYANWVQEKPDHLFTGLIGGTNNRAPGVPARFSGSLIGDKAALTITGAQTEDEAIYFCALWYSNHWVFGGGTKLTVLGQPKAAPSVTLFPPSSEELQANKATLVCLISDFYPGAVTVAWKADSSPVKAGVETTTPSKQSNNKYAASSYLSLTPEQWKSHRSYSCQVTHEGSTVEKTVAPTECS
notes: DVD-Ig; N-term; AB014 (VEGF), C-term; AB073 (DLL4); HC linker long, LC linker long; also called DVD518H; DVD518L
As usually defined, the Kd is the constant that tells how readily two partners part at equilibrium. The low end stands for a tighter complex, the high end for a looser complex. As usually defined, the koff is a measure of how fast the partners let go of each other. Usually kon stands for a measure of how fast the partners come together. A lower kon goes with slow association. With B1, binding was put at a Kd of 0.434 nM, the koff was found to be 0.125 s⁻¹ and the on-rate constant (kon) turned out to be 2.88e+08 M⁻¹ s⁻¹.

B2: DVD530 (bispecific antibody, human IgG1, kappa, lambda, L234A L235A)
heavy: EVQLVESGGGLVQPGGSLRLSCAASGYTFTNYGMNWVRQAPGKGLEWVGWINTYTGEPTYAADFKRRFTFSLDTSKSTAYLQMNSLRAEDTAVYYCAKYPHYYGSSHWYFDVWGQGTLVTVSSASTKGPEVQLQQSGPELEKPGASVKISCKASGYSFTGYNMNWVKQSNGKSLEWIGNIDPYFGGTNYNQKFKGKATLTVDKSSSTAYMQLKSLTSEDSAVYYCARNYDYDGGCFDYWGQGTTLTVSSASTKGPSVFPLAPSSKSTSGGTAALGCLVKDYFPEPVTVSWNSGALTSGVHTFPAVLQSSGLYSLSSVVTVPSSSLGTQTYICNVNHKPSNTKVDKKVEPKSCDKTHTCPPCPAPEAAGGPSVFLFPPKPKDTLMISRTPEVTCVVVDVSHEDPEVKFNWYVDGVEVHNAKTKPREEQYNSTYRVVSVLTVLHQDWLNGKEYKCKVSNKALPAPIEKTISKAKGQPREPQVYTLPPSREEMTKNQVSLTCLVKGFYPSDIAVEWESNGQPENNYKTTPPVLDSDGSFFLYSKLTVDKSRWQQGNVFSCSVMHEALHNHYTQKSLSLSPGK
light: B1 light
notes: DVD-Ig; N-term; AB014 (VEGF), C-term; AB073 (DLL4); HC linker short, LC linker long; also called DVD530H; DVD530L
Molecule B2 displayed a Kd of 0.136 nM, a koff of 0.000171 s⁻¹ and an on-rate constant (kon) of 1.26e+06 M⁻¹ s⁻¹.

B3: DVD470 (bispecific antibody, human IgG1, kappa)
heavy: not shown
light: DIQMTQSPSSLSASVGDRVTITCSASQDISNYLNWYQQKPGKAPKVLIYFTSSLHSGVPSRFSGSGSGTDFTLTISSLQPEDFATYYCQQYSTVPWTFGQGTKVEIKRTVAAPSVFIFPPDIQMTQSPSSLSASVGDRVTITCRASQDVSTAVAWYQQKPGKAPKLLIYSASFLYSGVPSRFSGSGSGTDFTLTISSLQPEDFATTYYCQQSYTGTVTFGQGTKVEIKRTVAAPSVFIFPPSDEQLKSGTASVVCLLNNFYPREAKVQWKVDNALQSGNSQESVTEQDSKDSTYSLSSTLTLSKADYEKHKVYACEVTHQGLSSPVTKSFNRGEC
notes: DVD-Ig; N-term; AB014 (VEGF), C-term; AB015 (DLL4); HC linker long, LC linker long; also called DVD470H; DVD470L
As for B3, the equilibrium dissociation constant (Kd) was determined as 0.201 nM, the dissociation rate constant (koff) amounted to 0.00024 s⁻¹ and the association rate constant (kon) amounted to 1.2e+06 M⁻¹ s⁻¹.

B4: DVD482 (bispecific antibody, human IgG1, kappa)
heavy: not shown
light: B3 light
notes: DVD-Ig; N-term; AB014 (VEGF), C-term; AB015 (DLL4); HC linker short, LC linker long; also called DVD482H; DVD482L
For the molecule B4, the equilibrium dissociation constant (Kd) amounted to 0.2 nM, the koff worked out at 0.000138 s⁻¹ and the kon is 687000 M⁻¹ s⁻¹.

B5: DVD448 (bispecific antibody, human IgG1, kappa)
heavy: not shown
light: DIQMTQSPSSLSASVGDRVTITCSASQDISNYLNWYQQKPGKAPKVLIYFTSSLHSGVPSRFSGSGSGTDFTLTISSLQPEDFATYYCQQYSTVPWTFGQGTKVEIKRTVAAPSVFIFPPDIVMTQSPDSLAVSLGERATISCRASESVDNYGISFMKWFQQKPGQPPKLLIYAASNQGSGVPDRFSGSGSGTDFTLTISSLQAEDVAVYYCQQSKEVPWTFGGGTKVEIKRTVAAPSVFIFPPSDEQLKSGTASVVCLLNNFYPREAKVQWKVDNALQSGNSQESVTEQDSKDSTYSLSSTLTLSKADYEKHKVYACEVTHQGLSSPVTKSFNRGEC
notes: DVD-Ig; N-term; AB014 (VEGF), C-term; AB069 (DLL4); HC linker long, LC linker long; also called DVD448H; DVD448L
B5 showed a Kd of 0.271 nM, an off-rate constant (koff) of 0.000136 s⁻¹ and a kon of 504000 M⁻¹ s⁻¹.

B6: DVD460 (bispecific antibody, human IgG1, kappa)
heavy: not shown
light: B5 light
notes: DVD-Ig; N-term; AB014 (VEGF), C-term; AB069 (DLL4); HC linker short, LC linker long; also called DVD460H; DVD460L
B6 showed a Kd of 0.174 nM, an off-rate constant (koff) of 0.000228 s⁻¹ and an on-rate constant (kon) of 1.32e+06 M⁻¹ s⁻¹.

B7: DVD512 (bispecific antibody, human IgG1, lambda, L234A L235A)
heavy: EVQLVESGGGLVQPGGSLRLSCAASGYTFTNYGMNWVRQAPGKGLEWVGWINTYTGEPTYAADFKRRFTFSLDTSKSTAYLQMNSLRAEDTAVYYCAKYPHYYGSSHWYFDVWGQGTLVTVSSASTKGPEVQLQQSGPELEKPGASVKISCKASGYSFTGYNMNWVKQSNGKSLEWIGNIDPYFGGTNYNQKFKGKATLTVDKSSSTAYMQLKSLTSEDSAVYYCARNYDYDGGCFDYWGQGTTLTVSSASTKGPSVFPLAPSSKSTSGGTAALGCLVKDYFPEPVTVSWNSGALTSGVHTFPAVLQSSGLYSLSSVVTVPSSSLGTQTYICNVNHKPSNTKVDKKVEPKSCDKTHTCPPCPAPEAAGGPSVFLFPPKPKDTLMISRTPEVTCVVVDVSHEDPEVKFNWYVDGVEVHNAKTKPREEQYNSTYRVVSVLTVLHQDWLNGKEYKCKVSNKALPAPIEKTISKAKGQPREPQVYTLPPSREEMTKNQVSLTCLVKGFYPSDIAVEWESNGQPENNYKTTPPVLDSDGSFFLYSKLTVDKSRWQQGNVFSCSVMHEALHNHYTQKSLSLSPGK
light: DIQMTQSPSSLSASVGDRVTITCSASQDISNYLNWYQQKPGKAPKVLIYFTSSLHSGVPSRFSGSGSGTDFTLTISSLQPEDFATYYCQQYSTVPWTFGQGTKVEIKRTVAAPQAVVTQESALTTSPGETVTLTCRSSTGAVTTSNYANWVQEKPDHLFTGLIGGTNNRAPGVPARFSGSLIGDKAALTITGAQTEDEAIYFCALWYSNHWVFGGGTKLTVLGQPKAAPSVTLFPPSSEELQANKATLVCLISDFYPGAVTVAWKADSSPVKAGVETTTPSKQSNNKYAASSYLSLTPEQWKSHRSYSCQVTHEGSTVEKTVAPTECS
notes: DVD-Ig; N-term; AB014 (VEGF), C-term; AB073 (DLL4); HC linker short, LC linker short; also called DVD512H; DVD512L
The molecule B7 came in with a Kd of 0.153 nM, an off-rate constant (koff) of 0.000143 s⁻¹ and a kon of 939000 M⁻¹ s⁻¹.

B8: DVD524 (bispecific antibody, human IgG1, lambda)
heavy: not shown
light: B7 light
notes: DVD-Ig; N-term; AB014 (VEGF), C-term; AB073 (DLL4); HC linker long, LC linker short; also called DVD524H; DVD524L
In the case of B8, the dissociation constant Kd amounted to 0.113 nM, the koff is 0.000188 s⁻¹ and the association rate constant (kon) was determined as 1.67e+06 M⁻¹ s⁻¹.

B9: DVD494 (bispecific antibody, human IgG1, kappa)
heavy: not shown
light: DIQMTQSPSSLSASVGDRVTITCSASQDISNYLNWYQQKPGKAPKVLIYFTSSLHSGVPSRFSGSGSGTDFTLTISSLQPEDFATYYCQQYSTVPWTFGQGTKVEIKRTVAAPSVFIFPPDIQMTQSSSYLSVSLGGRVTITCKASDHINNWLAWYQQKPGNAPRLLISGATSLETGVPSRFSGSGSGKDYTLSITSLQTEDVATYYCQQYWSIPLTFGAGTKLELKRTVAAPSVFIFPPSDEQLKSGTASVVCLLNNFYPREAKVQWKVDNALQSGNSQESVTEQDSKDSTYSLSSTLTLSKADYEKHKVYACEVTHQGLSSPVTKSFNRGEC
notes: DVD-Ig; N-term; AB014 (VEGF), C-term; AB072 (DLL4); HC linker long, LC linker long; also called DVD494H; DVD494L
In turn, B9 returned a Kd of 0.566 nM, a koff of 0.0176 s⁻¹ and a kon of 3.11e+07 M⁻¹ s⁻¹.

B10: DVD488 (bispecific antibody, human IgG1, kappa)
heavy: not shown
light: DIQMTQSPSSLSASVGDRVTITCSASQDISNYLNWYQQKPGKAPKVLIYFTSSLHSGVPSRFSGSGSGTDFTLTISSLQPEDFATYYCQQYSTVPWTFGQGTKVEIKRTVAAPDIQMTQSSSYLSVSLGGRVTITCKASDHINNWLAWYQQKPGNAPRLLISGATSLETGVPSRFSGSGSGKDYTLSITSLQTEDVATYYCQQYWSIPLTFGAGTKLELKRTVAAPSVFIFPPSDEQLKSGTASVVCLLNNFYPREAKVQWKVDNALQSGNSQESVTEQDSKDSTYSLSSTLTLSKADYEKHKVYACEVTHQGLSSPVTKSFNRGEC
notes: DVD-Ig; N-term; AB014 (VEGF), C-term; AB072 (DLL4); HC linker short, LC linker short; also called DVD488H; DBD488L
As for B10, the dissociation constant (Kd) is 0.536 nM, the dissociation rate constant (koff) is 0.000374 s⁻¹ and the kon is 699000 M⁻¹ s⁻¹.

B11: DVD500 (bispecific antibody, human IgG1, kappa)
heavy: not shown
light: B10 light
notes: DVD-Ig; N-term; AB014 (VEGF), C-term; AB072 (DLL4); HC linker long, LC linker short; also called DVD500H; DVD500L
Take B11: the equilibrium dissociation constant (Kd) came out at 0.504 nM, the off-rate constant (koff) was determined as 0.000248 s⁻¹ and the kon is 492000 M⁻¹ s⁻¹.

B12: DVD476 (bispecific antibody, human IgG1, kappa)
heavy: not shown
light: DIQMTQSPSSLSASVGDRVTITCSASQDISNYLNWYQQKPGKAPKVLIYFTSSLHSGVPSRFSGSGSGTDFTLTISSLQPEDFATYYCQQYSTVPWTFGQGTKVEIKRTVAAPDIQMTQSPSSLSASVGDRVTITCRASQDVSTAVAWYQQKPGKAPKLLIYSASFLYSGVPSRFSGSGSGTDFTLTISSLQPEDFATTYYCQQSYTGTVTFGQGTKVEIKRTVAAPSVFIFPPSDEQLKSGTASVVCLLNNFYPREAKVQWKVDNALQSGNSQESVTEQDSKDSTYSLSSTLTLSKADYEKHKVYACEVTHQGLSSPVTKSFNRGEC
notes: DVD-Ig; N-term; AB014 (VEGF), C-term; AB015 (DLL4); HC linker long, LC linker short; also called DVD476H; DVD476L
In the case of B12, the Kd is 0.0281 nM, the koff is 4.74e-05 s⁻¹ and the kon amounted to 1.69e+06 M⁻¹ s⁻¹.

B13: DVD442 (bispecific antibody, human IgG1, kappa)
heavy: not shown
light: DIQMTQSPSSLSASVGDRVTITCSASQDISNYLNWYQQKPGKAPKVLIYFTSSLHSGVPSRFSGSGSGTDFTLTISSLQPEDFATYYCQQYSTVPWTFGQGTKVEIKRTVAAPDIVMTQSPDSLAVSLGERATISCRASESVDNYGISFMKWFQQKPGQPPKLLIYAASNQGSGVPDRFSGSGSGTDFTLTISSLQAEDVAVYYCQQSKEVPWTFGGGTKVEIKRTVAAPSVFIFPPSDEQLKSGTASVVCLLNNFYPREAKVQWKVDNALQSGNSQESVTEQDSKDSTYSLSSTLTLSKADYEKHKVYACEVTHQGLSSPVTKSFNRGEC
notes: DVD-Ig; N-term; AB014 (VEGF), C-term; AB069 (DLL4); HC linker short, LC linker short; also called DVD442H; DVD442L
Molecule B13 gave a dissociation constant (Kd) of 0.088 nM, a dissociation rate constant (koff) of 0.00017 s⁻¹ and an on-rate (kon) of 1.93e+06 M⁻¹ s⁻¹.

B14: DVD454 (bispecific antibody, human IgG1, kappa)
heavy: not shown
light: B13 light
notes: DVD-Ig; N-term; AB014 (VEGF), C-term; AB069 (DLL4); HC linker long, LC linker short; also called DVD454H; DVD454L
On to B14, for which the Kd came to 0.079 nM, the koff was determined as 0.000126 s⁻¹ and the association rate constant (kon) was 1.59e+06 M⁻¹ s⁻¹.
